Data on eight molecules can be found in patent US20120316071A1 (published 2012).

In experiment [1] the target is T1, rHuman Notch-1/Fc Chimera, CF (R&D Systems Cat#3647-TK) (human, UniProt P46531 19-526).
T1 construct: Bought protein; Fc part of the bought chimera not given
Kind of experiment: ECL multispot (MSD) assay; antigen spotted on plate, Fab in solution.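 Also: purified Fab incubated 1 hour at 20 °C in 1% BSA TBST on antigen-coated wells, detected with TAG antibody, ECL read on Sector Imager 2400, compared to each well's blank.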

Experiment [2] has as its target T2, rHuman P-Cadherin/Fc Chimera, CF (R&D Systems Cat#861-PC) (human, UniProt P22223 108-654).
T2 construct: Bought protein; Fc part of the bought chimera not given
The experiment is described as above.

The target of experiment [3] is T3, Recombinant Human DLL4 (R&D Systems Cat#1506-D4/CF) (human, UniProt Q9NR61 27-524).
T3 construct: Bought recombinant protein; also called delta-like protein 4; rHuman DLL4
Described as above.

Experiment [4] has as its target T4, rHuman HGF R/c-MET/Fc Chimera, CF (R&D Systems Cat#358-MT/CF) (human, UniProt P08581 25-932).
T4 construct: Bought protein; also called HGF R/Fc; hepatocyte growth factor receptor; Fc part of the bought chimera not given
The experiment is described as above.

Experiment [5] has as its target T5, rHuman CD44/Fc Chimera, CF (R&D Systems Cat#3660-CD) (human, UniProt P16070 21-220).
T5 construct: Bought protein; Fc part of the bought chimera not given
The description is as above.

Experiment [6] concerns the target T6, rHuman ErbB2/Fc Chimera, CF (R&D Systems Cat#1129-ER) (human, UniProt P04626 23-652).
T6 construct: Bought protein; also called human epidermal growth factor 2 receptor; Fc part of the bought chimera not given
The experiment is described as above.

Experiment [7] concerns the target T7, rHuman EGF R/Fc Chimera, CF (R&D Systems Cat#344-ER) (human, UniProt P00533 25-645).
T7 construct: Bought protein; also called epidermal growth factor receptor; Fc part of the bought chimera not given
The experiment is described as above.

Experiment [8] concerns the target T8, rHuman IGF-1 sR, (IGF-1 sR), CF (R&D Systems Cat#391-GR) (human, UniProt P08069 31-932).
T8 construct: Bought soluble receptor; also called insulin-like growth factor-1 soluble receptor
The experiment is described as above.

Experiment [9] deals with T9, rHuman Erythropoietin R/Fc Chimera, CF (R&D Systems Cat#963-ER) (human, UniProt P19235 25-250).
T9 construct: Bought protein; also called EPO R; EPO R/Fc; Fc part of the bought chimera not given
T9 sequence (looked up): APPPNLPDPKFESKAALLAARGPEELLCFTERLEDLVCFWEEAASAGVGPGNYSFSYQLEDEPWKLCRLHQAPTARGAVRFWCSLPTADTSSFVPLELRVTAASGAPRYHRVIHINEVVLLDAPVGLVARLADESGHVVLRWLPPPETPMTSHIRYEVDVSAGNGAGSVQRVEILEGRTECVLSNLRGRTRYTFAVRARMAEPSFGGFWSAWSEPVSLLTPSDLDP
Described as above.

Experiment [10] deals with T10, Recombinant Human DLL4 (delta-like protein 4) (human, UniProt Q9NR61 27-524).
T10 construct: Bought recombinant human DLL4 (R&D Systems Cat#1506-D4/CF); also called rHuman DLL4; Delta-like 4
Kind of experiment: ELISA, DLL4 coated on plate, Fab at 0 nM (no-Fab background, second 0 row). (In general: In an ELISA, binding on a coated surface is turned into a signal by an enzyme label.)

Experiment [11] concerns the target T10, Recombinant Human DLL4 (delta-like …). Kind of experiment: ELISA, DLL4 coated on plate, Fab at 200 nM.
Experiment [12] has the same target. Kind of experiment: ELISA, DLL4 coated on plate, Fab at 25 nM (first 25 nM row).
Experiment [13] shares this target. As to the kind of experiment: ELISA, DLL4 coated on plate, Fab at 400 nM.
For experiment [14] the target is unchanged. Kind of experiment: ELISA, DLL4 coated on plate, Fab at 100 nM.
Experiment [15] shares this target. Kind of experiment: ELISA, DLL4 coated on plate, Fab at 0 nM (no-Fab background, first 0 row).
For experiment [16] the target is unchanged. Kind of experiment: ELISA, DLL4 coated on plate, Fab at 50 nM.
Experiment [17] has the same target. As to the kind of experiment: ELISA, DLL4 coated on plate, Fab at 25 nM (second 25 nM row).
The target is the same in experiment [18]. As to the kind of experiment: ELISA, DLL4 coated on plate, Fab at 0 nM (no-Fab background).
Experiment [19] shares this target. Kind of experiment: ELISA, DLL4 coated on plate, Fab at 100 nM. This is another data set of the same source.
Experiment [20] shares this target. Kind of experiment: ELISA, DLL4 coated on plate, Fab at 50 nM. This is another data set of the same source.
For experiment [21] the target is unchanged. Kind of experiment: ELISA, DLL4 coated on plate, Fab at 75 nM.

T4 sequence (P08581 25-932, change not shown): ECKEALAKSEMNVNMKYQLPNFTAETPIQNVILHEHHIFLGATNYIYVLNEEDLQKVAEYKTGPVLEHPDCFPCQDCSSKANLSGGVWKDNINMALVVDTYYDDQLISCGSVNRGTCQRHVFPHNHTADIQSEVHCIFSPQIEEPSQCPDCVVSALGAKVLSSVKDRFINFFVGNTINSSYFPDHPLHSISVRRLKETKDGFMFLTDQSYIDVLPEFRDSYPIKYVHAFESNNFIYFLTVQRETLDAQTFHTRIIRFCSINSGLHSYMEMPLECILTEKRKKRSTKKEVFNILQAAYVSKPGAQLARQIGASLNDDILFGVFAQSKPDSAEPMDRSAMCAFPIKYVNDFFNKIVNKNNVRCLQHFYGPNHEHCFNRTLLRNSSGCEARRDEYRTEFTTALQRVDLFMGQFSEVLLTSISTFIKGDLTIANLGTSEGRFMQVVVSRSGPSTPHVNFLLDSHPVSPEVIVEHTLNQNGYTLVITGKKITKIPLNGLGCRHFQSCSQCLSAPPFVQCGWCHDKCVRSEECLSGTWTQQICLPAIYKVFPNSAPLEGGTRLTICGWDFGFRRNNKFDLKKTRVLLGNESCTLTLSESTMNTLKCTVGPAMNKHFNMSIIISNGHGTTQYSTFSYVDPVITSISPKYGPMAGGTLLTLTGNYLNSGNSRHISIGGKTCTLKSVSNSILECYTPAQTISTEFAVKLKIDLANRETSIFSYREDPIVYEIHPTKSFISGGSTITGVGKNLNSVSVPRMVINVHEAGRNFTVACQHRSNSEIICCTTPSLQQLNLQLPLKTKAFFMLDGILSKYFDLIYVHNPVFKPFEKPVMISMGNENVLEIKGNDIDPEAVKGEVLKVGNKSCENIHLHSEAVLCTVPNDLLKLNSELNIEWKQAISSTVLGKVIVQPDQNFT

B1: Fab VH1-46_IGHD6-6*01_IGHJ1*01 S102A/S103P/S104F (APF) & L6_IGKJ1*01 S30R (Fab, V domains shown)
VH: QVQLVQSGAEVKKPGASVKVSCKASGYTFTSYYMHWVRQAPGQGLEWMGIINPSGGSTSYAQKFQGRVTMTRDTSTSTVYMELSSLRSEDTAVYYCAREEYAPFSAEYFQHWGQGTLVTVSS
VL: EIVLTQSPATLSLSPGERATLSCRASQSVRSYLAWYQQKPGQAPRLLIYDASNRATGIPARFSGSGSGTDFTLTISSLEPEDFAVYYCQQRSNWPPWTFGQGTKVEIKR
notes: Tested as Fab made in E. coli; The heavy chain vector (Plasmid A) adds CH1 with His and Flag tags, the kappa vector (Plasmid C) adds CL kappa; also called APF / S30R
B1: the ECL signal is 155 ECL signal in experiment [1]; 39 ECL signal in experiment [2]; 745 ECL signal in experiment [3]; 108 ECL signal in experiment [4]; 89 ECL signal in experiment [5]; 35 ECL signal in experiment [6]. The ECL signal in experiment [7] is 140 ECL signal; in experiment [8] it was 86 ECL signal; in experiment [9], 87 ECL signal.

B2: Fab VH1-46_IGHD6-6*01_IGHJ1*01 S102A/S103P/S104F/H111F & L6_IGKJ1*01 S28H (Fab, V domains shown)
VH: QVQLVQSGAEVKKPGASVKVSCKASGYTFTSYYMHWVRQAPGQGLEWMGIINPSGGSTSYAQKFQGRVTMTRDTSTSTVYMELSSLRSEDTAVYYCAREEYAPFSAEYFQFWGQGTLVTVSS
VL: EIVLTQSPATLSLSPGERATLSCRASQHVSSYLAWYQQKPGQAPRLLIYDASNRATGIPARFSGSGSGTDFTLTISSLEPEDFAVYYCQQRSNWPPWTFGQGTKVEIKR
notes: Tested as a Fab; also called APFF & S28H
As to B2, the ELISA signal amounted to 0 in [10]; 0.14 in experiment [11]; 0.03 in [12]; 0.13 in experiment [13]; 0.09 in experiment [14]; 0.01 in experiment [15]. The values for the ELISA signal in experiment [16] and in [17] were 0.05 and 0.03, respectively.

B3: Fab VH1-46_IGHD6-6*01_IGHJ1*01 S102A/S103P/S104F/H111F/G56A & L6_IGKJ1*01 (Fab, V domains shown)
VH: QVQLVQSGAEVKKPGASVKVSCKASGYTFTSYYMHWVRQAPGQGLEWMGIINPSGASTSYAQKFQGRVTMTRDTSTSTVYMELSSLRSEDTAVYYCAREEYAPFSAEYFQFWGQGTLVTVSS
VL: not shown
notes: Tested as a Fab; also called APFF G56A & Parent
On to B3, for which the ELISA signal came out at 0.002 in experiment [18], 0.338 in [19], 0.301 in [20] and 0.399 in [21].

B4: Fab VH1-46_IGHD6-6*01_IGHJ1*01 S102A/S103P/S104F/H111F & L6_IGKJ1*01 S28N/S30D/S31H (Fab, V domains shown)
VH: QVQLVQSGAEVKKPGASVKVSCKASGYTFTSYYMHWVRQAPGQGLEWMGIINPSGGSTSYAQKFQGRVTMTRDTSTSTVYMELSSLRSEDTAVYYCAREEYAPFSAEYFQFWGQGTLVTVSS
VL: EIVLTQSPATLSLSPGERATLSCRASQNVDHYLAWYQQKPGQAPRLLIYDASNRATGIPARFSGSGSGTDFTLTISSLEPEDFAVYYCQQRSNWPPWTFGQGTKVEIKR
notes: Tested as a Fab; also called H:APFF & L:NDH; APFF-NDH
For B4, the ELISA signal in [18] is 0.002; in experiment [19], 0.259; in [20], 0.202; in experiment [21] it was 0.268.

B5: Fab VH1-46_IGHD6-6*01_IGHJ1*01 S102A/S103P/S104F (APF) & L6_IGKJ1*01 S30T (Fab, V domains shown)
VH: QVQLVQSGAEVKKPGASVKVSCKASGYTFTSYYMHWVRQAPGQGLEWMGIINPSGGSTSYAQKFQGRVTMTRDTSTSTVYMELSSLRSEDTAVYYCAREEYAPFSAEYFQHWGQGTLVTVSS
VL: EIVLTQSPATLSLSPGERATLSCRASQSVTSYLAWYQQKPGQAPRLLIYDASNRATGIPARFSGSGSGTDFTLTISSLEPEDFAVYYCQQRSNWPPWTFGQGTKVEIKR
notes: Tested as Fab made in E. coli; The heavy chain vector (Plasmid A) adds CH1 with His and Flag tags, the kappa vector (Plasmid C) adds CL kappa; also called APF / S30T
As for B5, the ECL signal in experiment [1] amounted to 127 ECL signal; in experiment [2] it was 195 ECL signal; in experiment [3], 1020 ECL signal; in experiment [4], 297 ECL signal; in [5], 229 ECL signal; in experiment [6] it was 243 ECL signal. Moreover, the ECL signal in experiment [7] amounted to 274 ECL signal; in experiment [8] it was 204 ECL signal; in experiment [9], 207 ECL signal.

B6: Fab VH1-46_IGHD6-6*01_IGHJ1*01 S102A/S103P/S104F/H111F & L6_IGKJ1*01 S30D (Fab, V domains shown)
VH: QVQLVQSGAEVKKPGASVKVSCKASGYTFTSYYMHWVRQAPGQGLEWMGIINPSGGSTSYAQKFQGRVTMTRDTSTSTVYMELSSLRSEDTAVYYCAREEYAPFSAEYFQFWGQGTLVTVSS
VL: EIVLTQSPATLSLSPGERATLSCRASQSVDSYLAWYQQKPGQAPRLLIYDASNRATGIPARFSGSGSGTDFTLTISSLEPEDFAVYYCQQRSNWPPWTFGQGTKVEIKR
notes: Tested as a Fab; also called APFF & S30D
B6: the ELISA signal in experiment [10] was determined as 0.01; in experiment [11], 0.11; in [12] it was 0.03; in [13], 0.13; in [14], 0.09; in experiment [15] it was 0. In addition, the ELISA signal in experiment [16] turned out to be 0.06; in experiment [17] it was 0.03.

B7: Fab VH1-46_IGHD6-6*01_IGHJ1*01 S102A/S103P/S104F/H111F & L6_IGKJ1*01 S31H (Fab, V domains shown)
VH: QVQLVQSGAEVKKPGASVKVSCKASGYTFTSYYMHWVRQAPGQGLEWMGIINPSGGSTSYAQKFQGRVTMTRDTSTSTVYMELSSLRSEDTAVYYCAREEYAPFSAEYFQFWGQGTLVTVSS
VL: EIVLTQSPATLSLSPGERATLSCRASQSVSHYLAWYQQKPGQAPRLLIYDASNRATGIPARFSGSGSGTDFTLTISSLEPEDFAVYYCQQRSNWPPWTFGQGTKVEIKR
notes: Tested as a Fab; also called APFF & S31H
As for B7, the ELISA signal came out at 0 in experiment [10]; 0.11 in experiment [11]; 0.03 in [12]; 0.2 in [13]; 0.09 in [14]; 0 in experiment [15]. The ELISA signal in experiment [16] stood at 0.05; in experiment [17] it was 0.03.

B8: Fab VH1-46_IGHD6-6*01_IGHJ1*01 S102A/S103P/S104F/H111F & L6_IGKJ1*01 S28N (Fab, V domains shown)
VH: QVQLVQSGAEVKKPGASVKVSCKASGYTFTSYYMHWVRQAPGQGLEWMGIINPSGGSTSYAQKFQGRVTMTRDTSTSTVYMELSSLRSEDTAVYYCAREEYAPFSAEYFQFWGQGTLVTVSS
VL: EIVLTQSPATLSLSPGERATLSCRASQNVSSYLAWYQQKPGQAPRLLIYDASNRATGIPARFSGSGSGTDFTLTISSLEPEDFAVYYCQQRSNWPPWTFGQGTKVEIKR
notes: Tested as a Fab; also called APFF & S28N
Turning to B8, the ELISA signal was 0 in experiment [10]; 0.17 in experiment [11]; 0.04 in [12]; 0.19 in [13]; 0.13 in [14]; 0 in [15]. The ELISA signal is 0.07 in experiment [16] and 0.05 in [17].
